{"source": "paper PMC3170560", "proteins": {"B1": {"name": "mBnHO1 (mature BnHO1, haem oxygenase-1) (Brassica napus) (protein)", "chain": "ATAAEKQKKKRYPGESKGFVEEMRFVAMRLHTKEQAKEGEKETKAPEERPVAKWEPTVEGYLRFLVDSKLVYDTLEEIIGQSTFPTYAEFKNTGLERAEKLDTDLKWFKEQGYEIPEPTATGKKYSQYLKDLADKDPPSFICHFYNIYFAHSAGGRMIGRKVAERILDNRELEFYKWDGDLSELLQNVREKLNKVAEEWTREEKNHCLVGDRESFKYSGEILRLILS"}}, "substrate": "C=CC1=C(C)C2=Cc3c(C=C)c(C)c4[n]3[Fe]([Cl])[n]3c(c(C)c(CCC(=O)O)c3=CC3=NC(=C4)C(C)=C3CCC(=O)O)=CC1=N2", "test": "purified protein", "conditions": "haemin 1-20 μM, NADPH added to start, 0.1 M HEPES-NaOH pH 7.2"}
{"protein": "B1", "values": [{"measurement": "Km", "result": 2.52, "unit": "µM"}]}
